Data on two molecules can be found in article PMC2669539 (Nature structural & molecular biology, 2008).

The target of test [1] is T1, human Jagged-1 DSL-EGF3 fragment (J-1_(DSL-EGF3)), His-tagged, wild type (human, UniProt P78504 187-335). The test is described as follows: pull-down.
Test [2] addresses T1, human Jagged-1 DSL-EGF3 fragment …. The test is described as follows: SPR. (SPR reads the build-up and loss of mass on a sensor chip optically.)

T1 sequence (P78504 187-335): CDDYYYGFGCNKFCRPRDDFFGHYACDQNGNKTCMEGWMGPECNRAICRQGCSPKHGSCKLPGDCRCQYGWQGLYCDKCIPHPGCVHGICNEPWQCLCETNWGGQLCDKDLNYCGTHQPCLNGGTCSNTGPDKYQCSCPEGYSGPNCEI

B1: human Notch-1 EGF domains 11-13 (N-1_(11-13)) with C-terminal BirA-tag, biotinylated (domain or fragment)
chain: QDVDECSLGANPCEHAGKCINTLGSFECQCLQGYTGPRCEIDVNECVSNPCQNDATCLDQIGEFQCICMPGYEGVHCEVNTDECASSPCLHNGRCLDKINEFQCECPTGFTGHLCQ
modifications: biotin on the C-terminal tag
With B1, the binding result in test [1] was “binds”.

B2: human Notch-1 EGF domains 11-13 (N-1_(11-13)) without the BirA-tag (domain or fragment)
chain: B1 chain
For the molecule B2, in test [2], the binding result was “binds”.
